# Experimental data taken from article PMC2988884 (Nature structural & molecular biology, 2010).
# T1: Trs120 with a C-terminal TAP tag (Trs120-TAP) (S. cerevisiae (endogenous in yeast), UniProt Q04183 1-1289)
# T1 sequence (looked up): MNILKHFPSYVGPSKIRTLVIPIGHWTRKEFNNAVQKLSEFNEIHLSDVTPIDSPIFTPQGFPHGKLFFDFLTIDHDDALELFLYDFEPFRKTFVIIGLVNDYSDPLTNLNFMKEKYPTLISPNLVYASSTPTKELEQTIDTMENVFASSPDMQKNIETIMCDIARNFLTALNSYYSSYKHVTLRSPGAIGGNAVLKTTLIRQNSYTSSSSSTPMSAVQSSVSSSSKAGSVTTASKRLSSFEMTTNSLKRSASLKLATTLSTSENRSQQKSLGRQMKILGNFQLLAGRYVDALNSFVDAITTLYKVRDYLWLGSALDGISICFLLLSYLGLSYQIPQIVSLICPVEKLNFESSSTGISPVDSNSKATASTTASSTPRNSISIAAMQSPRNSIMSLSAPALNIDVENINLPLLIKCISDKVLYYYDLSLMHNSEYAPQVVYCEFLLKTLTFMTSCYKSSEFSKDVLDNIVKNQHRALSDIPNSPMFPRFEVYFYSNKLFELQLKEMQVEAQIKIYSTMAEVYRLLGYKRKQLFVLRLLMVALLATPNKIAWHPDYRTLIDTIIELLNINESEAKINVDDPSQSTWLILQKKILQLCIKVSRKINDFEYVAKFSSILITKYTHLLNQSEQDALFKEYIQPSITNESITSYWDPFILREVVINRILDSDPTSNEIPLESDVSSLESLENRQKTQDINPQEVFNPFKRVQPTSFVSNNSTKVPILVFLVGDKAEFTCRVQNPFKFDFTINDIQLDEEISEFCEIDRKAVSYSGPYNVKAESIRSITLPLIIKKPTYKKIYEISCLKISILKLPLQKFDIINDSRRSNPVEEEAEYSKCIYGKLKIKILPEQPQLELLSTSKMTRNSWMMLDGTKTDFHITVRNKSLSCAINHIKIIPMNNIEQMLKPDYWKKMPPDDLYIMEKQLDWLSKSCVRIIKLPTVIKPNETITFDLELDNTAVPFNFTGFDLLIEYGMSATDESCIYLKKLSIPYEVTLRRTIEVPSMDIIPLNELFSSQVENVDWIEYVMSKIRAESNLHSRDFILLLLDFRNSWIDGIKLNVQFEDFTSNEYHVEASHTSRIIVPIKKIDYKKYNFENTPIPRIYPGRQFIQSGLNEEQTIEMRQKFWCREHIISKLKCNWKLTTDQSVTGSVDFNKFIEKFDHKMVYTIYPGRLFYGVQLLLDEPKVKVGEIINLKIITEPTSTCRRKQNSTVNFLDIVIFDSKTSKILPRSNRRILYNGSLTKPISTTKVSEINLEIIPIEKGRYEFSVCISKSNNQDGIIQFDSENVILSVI
# B1: Trs130 (natural protein, S. cerevisiae (endogenous in yeast), UniProt Q03660 1-1102, looked up)
# chain: MDKEIYCGSVPVSYFDPFDLFESLRPEFQQILPLDNIHWKAFDGTVRTVNRLPIELIPEGRGEADKSNDEQPFIRFLIVNCISIDQYRAKVRPLVRQWLPNLESVSSSTGEKMIYKPIILLYANSEVVDSNLFKSVSLMEKFGKDFPHVQTLEVRSVYRSPKERQEFWNQFSQKIKASVLSIFQKRLTHLQHSLANLQKGNNFEEQLLTREKLYELYVVFNILEDASLELQKIKKEILRRNMNMPDGKLQVPFESSSKSDESLGSIIIEGTLDKFQLHKYFFIRRLRLLKLEDQTLTAFVGAFQLIKNFIESISIEYRKSVRLLEFKHYFITSMLSYFEFENVSNPLLCEIKAELLMLKRDNWVQGVMATSGYRLMDKNYPNSDVKYKFDLLKETFVDETVFQENFLTLTKEILSLFNKCEGKRQRIVDILSIEIGLLYYQGKKYEEAVSLFLSCYEYYTQTNWNSIGLKILQVFIDSLSHCPKLDVLQIDGESVSASAVLTNAFLNILKLCKDNDSKEIWWKKFMDLQMKNNIHLMYPLDGLFEVTLNSKVHLARANVSAIEVNLKSYGFPEDISTKTMRLSLKNMGGDVIVFGASDFLLKKGENKLILECRDIMYGEFSLLSFEIIVEGITFVKEFPENQDEFIVVPEIYCKESTKVLVKQAHNLNLGEYALELKSVQSDALESLQVEVEVQKNIGNMKNLPVSFSMDEIQARKRYNTPFENVRLEYYLLDQITAFDLIIKTSFTKKNDQGTFGETKKVRIQCYLQLSVSVEDIFKKDIFFFKFLLNSSVREEPVILYSSELSAPDTRNDYNIRGDYIATTPALITFDGNESFINCYEITANNNFDSKDIFNLKVRYNTLKEQLDCFITDAVLIEGDVEWFILFEKWKTFWELEILKKLKYDYDAFKENRIIRLLKTSIDLNKTKSKIRNLCIEKAVLDKILICLNKVSRGIAVCNTDMDEYVRNLVPKQLTVPVQLPGFEQFFHVQFEQMETSHDALHDTIATIGNSLSYTVIVENLSGQWGQDVIDDGGYIFEILSSNEWLIHGQKRCAIKEKRKEFEVHLIPLKKGYLNFPRVEITNINGKSCRVDHSNAFESILIF
# How the values were obtained:
# [1] = target: T1, Trs120 with a C-terminal TAP tag …; assay: single-particle EM
# Trs130 = target: B1; assay: single-particle EM
binder,measurement,setting,value
B1,binding result,[1],binds
"Trs20 (natural protein, S. cerevisiae (endogenous in yeast), UniProt P38334 1-175, looked up) MPQYFAIIGKKDNPVYEIEFTNAENPQGFPQDLKELNPFILHASLDIVEDLQWQINPTSQLNGNGGNGSNGGGGFLRSRAVNNTDNCYLGKVDHFYGLAITAYISYSGMKFVMIHGNSANSSVVIDDNNMRSFYQEVHELYVKTLMNPFYKITDPIRSPAFDSRVRTLARKHLSK",binding result,Trs130,binds
"Bet3 (natural protein, S. cerevisiae (endogenous in yeast), UniProt P36149 1-193, looked up) MVSTTQSRSLKAMGEEIWKNKTEKINTELFTLTYGSIVAQLCQDYERDFNKVNDHLYSMGYNIGCRLIEDFLARTALPRCENLVKTSEVLSKCAFKIFLNITPNITNWSHNKDTFSLILDENPLADFVELPMDAMKSLWYSNILCGVLKGSLEMVQLDCDVWFVSDILRGDSQTEIKVKLNRILKDEIPIGED",binding result,[1],binds
"Trs33 (natural protein, S. cerevisiae (endogenous in yeast), UniProt Q99394 1-268, looked up) MSSTHSNNVGHPQSSPQGPLTEQQRAQQQYQIFENSLPKVSQSVYQMLLNEMVPLAMGIERQISGDVISSDSNVTSENGNINNMIKRLKIEEHHTVDIIRSHNLIHELYKADEEEKEKVLARLRNIGFQIGLKLSELLIFSNNPNLKFKEMDLLLIMKFICRDVWKQIFGKQIDNLKTNHRGTFYLLDYDYRPIQSFSLEEDAKNEELKMIEPFLEIPVGIIRGVLSSLGYSSEEVICLASFIDRPTDRPKTAFPKGVSFHVQVTMPQ",binding result,[1],binds
